This passage reports change in Tm stabilization from the receptor-ligand ΔTm results from US20060099643A1, “Method for determining the regulation of xenobiotic removal” (priority 2002, published 2006).

For assay [1], the target named is T1, ER-α (UniProt P03372 297-554, limits assumed).
T1 construct: also called estrogen receptor alpha
T1 sequence (looked up): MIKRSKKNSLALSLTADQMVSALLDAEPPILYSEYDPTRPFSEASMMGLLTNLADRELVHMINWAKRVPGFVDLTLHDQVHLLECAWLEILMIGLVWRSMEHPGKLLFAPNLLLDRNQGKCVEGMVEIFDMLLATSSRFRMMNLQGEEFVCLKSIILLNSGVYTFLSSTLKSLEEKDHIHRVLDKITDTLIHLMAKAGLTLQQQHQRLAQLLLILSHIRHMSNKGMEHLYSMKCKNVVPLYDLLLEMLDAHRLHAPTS
The assay is described as follows: Thermofluor thermal shift; ER-α 8 µM, no ligand; SRC-3 11 µM.

In assay [2] the target is T2, ER-β (UniProt Q92731 256-505, limits assumed).
T2 construct: also called estrogen receptor beta
The assay is described as follows: Thermofluor thermal shift; ER-β 8 µM, no ligand; SRC-3 11 µM. Background: Differential scanning fluorimetry follows unfolding on heating by fluorescence.

In assay [3] the target is T1, ER-α. The assay is described as follows: Thermofluor thermal shift; ER-α 8 µM with tamoxifen 20 µM; SRC-3 11 µM.
In assay [4] the target is T1, ER-α. The assay is described as follows: Thermofluor thermal shift; ER-α 8 µM with 4-OH-tamoxifen 20 µM; SRC-3 11 µM.
Assay [5] concerns the target T2, ER-β. The assay is described as follows: Thermofluor thermal shift; ER-β 8 µM with ICI-182780 20 µM; SRC-3 11 µM.
Assay [6] deals with T1, ER-α. The assay is described as follows: Thermofluor thermal shift; ER-α 8 µM with estradiol 20 µM; SRC-3 11 µM.
For assay [7], the target named is T2, ER-β. The assay is described as follows: Thermofluor thermal shift; ER-β 8 µM with 17-α-ethylene-E2 20 µM; SRC-3 11 µM.
For assay [8], the target named is T1, ER-α. The assay is described as follows: Thermofluor thermal shift; ER-α 8 µM with estrone 20 µM; SRC-3 11 µM.
Assay [9] has as its target T2, ER-β. The assay is described as follows: Thermofluor thermal shift; ER-β 8 µM with 2-methoxy-E2 20 µM; SRC-3 11 µM.
For assay [10], the target named is T2, ER-β. The assay is described as follows: Thermofluor thermal shift; ER-β 8 µM with estrone 20 µM; SRC-3 11 µM.
In assay [11] the target is T1, ER-α. The assay is described as follows: Thermofluor thermal shift; ER-α 8 µM with 17-α-ethylene-E2 20 µM; SRC-3 11 µM.
Assay [12] concerns the target T2, ER-β. The assay is described as follows: Thermofluor thermal shift; ER-β 8 µM with estradiol 20 µM; SRC-3 11 µM.
The target in assay [13] is T1, ER-α. The assay is described as follows: Thermofluor thermal shift; ER-α 8 µM with 2-methoxy-E2 20 µM; SRC-3 11 µM.
In assay [14] the target is T2, ER-β. The assay is described as follows: Thermofluor thermal shift; ER-β 8 µM with 4-OH-tamoxifen 20 µM; SRC-3 11 µM.
Assay [15] has as its target T2, ER-β. The assay is described as follows: Thermofluor thermal shift; ER-β 8 µM with tamoxifen 20 µM; SRC-3 11 µM.
Assay [16] concerns the target T1, ER-α. The assay is described as follows: Thermofluor thermal shift; ER-α 8 µM with ICI-182780 20 µM; SRC-3 11 µM.

T2 sequence (Q92731 256-505 limits assumed): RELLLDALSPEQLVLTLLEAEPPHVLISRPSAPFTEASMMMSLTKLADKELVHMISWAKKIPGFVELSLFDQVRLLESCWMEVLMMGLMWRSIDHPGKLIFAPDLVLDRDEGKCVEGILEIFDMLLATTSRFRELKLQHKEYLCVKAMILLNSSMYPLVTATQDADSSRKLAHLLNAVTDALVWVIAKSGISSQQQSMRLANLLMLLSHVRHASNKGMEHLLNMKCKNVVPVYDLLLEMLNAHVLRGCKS

On to “co-activator protein SRC-3 (from UniProt Q9Y6Q9 627-829)”, for which the change in Tm stabilization from the receptor-ligand ΔTm with ER-α [1] stood at 1.5; with ER-β [2], 0.9; with ER-α [3], 1.1 °C; with ER-α [4], 0.2; in the assay with ER-β [5], 0.9 °C; with ER-α [6], 3.8 °C. Moreover, the change in Tm stabilization from the receptor-ligand ΔTm with ER-β [7] stood at 2.6; with ER-α [8] it was 3.5 °C; with ER-β [9], 2.5 °C; with ER-β [10] it was 1.6 °C; in the assay with ER-α [11], 4.5 °C; in the assay with ER-β [12], 1.7. Also, the change in Tm stabilization from the receptor-ligand ΔTm with ER-α [13] amounted to 5.3; in the assay with ER-β [14] it was 1.2 °C; with ER-β [15], 1.3; with ER-α [16], 0.5 °C.
